The values below come from article PMC4122391, “Analysis of Functions of VIP1 and Its Close Homologs in Osmosensory Responses of Arabidopsis thaliana”.

The target in series [1] is T1, GST-VIP1ΔN164 (Arabidopsis thaliana, UniProt Q9MA75 165-341).
T1 sequence: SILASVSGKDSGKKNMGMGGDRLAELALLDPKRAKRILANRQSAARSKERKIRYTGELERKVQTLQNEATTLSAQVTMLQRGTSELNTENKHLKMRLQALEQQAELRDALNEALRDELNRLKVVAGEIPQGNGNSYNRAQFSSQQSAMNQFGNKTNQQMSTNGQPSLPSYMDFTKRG
In words: competition; EMSA, CYP707A1 probe, competitor 0.5 µM; Gel shift with DIG-labeled probes as in cited ref. 17; competitors 0.5 µM unless stated; binding buffer, pH and temperature not given. The settings on record: protein: recombinant; tags: N-terminal GST; chain copies: 2; blunt. In general terms: In EMSA bound probe runs differently from free probe, usually more slowly.

Series [2] concerns the target T1, GST-VIP1ΔN164. In words: competition; EMSA, CYP707A1 probe; inhibits to same extent as A1; Gel shift with DIG-labeled probes as in cited ref. 17; competitors 0.5 µM unless stated; binding buffer, pH and temperature not given. The settings on record: protein: recombinant; tags: N-terminal GST; chain copies: 2; blunt.

B1: A1 (dsDNA)
DNA 1: CTCTCAAATGAGCTGTCTCTC
DNA 2: GAGAGACAGCTCATTTGAGAG
Consider B1, for which the binding result in the series with GST-VIP1ΔN164 [1] is on record as “binds”.

B2: A3 (dsDNA)
DNA 1: CTCTCAAATTAGCTGGCTCCA
DNA 2: TGGAGCCAGCTAATTTGAGAG
For the molecule B2, the binding result with GST-VIP1ΔN164 [2] is given as “binds”.
